Measurements as given in the DeepSol protein solubility set.

Experiment: soluble on expression in E. coli; label from the status in PepcDB or PDB records

Sequence	soluble on expression in E. coli
GMDKLVKYQELVKKLLTNYASDDVSDQDVEVQLILDTERNHYQWMNVGWQGLNRIYRCVIHFDIKDGKIWLQQNLTDRNPAEELVMMGVPREDIVLGLQAPYKRQYTDYGVA	soluble
MNIGIIGTGNMGNILIDAFLETRAVKPSCLTIINRTPAKAYHIKEKYPSVHIAKTIPEVIEQSQLIFICVKPIDIYPILKKYAEHFSDETCLVSITSPISPSQLETLVPCHVARIIPSITNRALSGASLFTFGDNCSEEWQQKLLRLFKNISTPLVIEEDITRVSSDIASCGPAFFSYLLQCFINAAVDKTNITHEEATTLVSEMVVGMGKLLEKEIFTLPTLQEKVCVKGGVTGEGIRVLEEHVGDMFHKLIERTHEKFDEDLECVDQQFNKHT	not soluble
MKTLPPILSNIIEKVTNTEPANVEDKLPMNILVLGSDEKQGGRSDTIMLVHIQKDFQPIVISIPRDTRVKVEGIKGYSKINAAYAYGKSKLAVKTVEDILGIKIDKYVVVNYEAVEKIVDLVGGVDVEVPFHLYYVDTTPGKELYINIPAGLQHLDGKKAVEFLRWRHNSNGKEYGRGGDLGRIEMQRKLLYALIEKMLKPQNIVRLPLIVQTVSKYTDHNFTKNEIMWFIQNVGKFNTQNIMMTILPGYPKYIDRVSYYILNEEKCRALIDDLNEPEVLKDSMKIKILSKSFDDKATQLKNDLESKGYSNVNLGRVSKLESSEVELKRVNRKYLELLKNDIDLSTYQVVYSPDYSDKFDVYIKVKLEHHHHHH	soluble
PRTRECDYCGTDIEPGTGTMFVHKDGATTHFCSSKCENNADLGREARNLEWTDTARGEAGEAEDEA	soluble
MRITFIGGGNMAGAIIGGLARQGGHRIHVVEHQQDKLDQLAAGFGCSGSQALPERFAADEVVVLAVKPQQLRELCLALAPVLNGALVVSIAAGIRLDALARWLGSRRIVRVMPNTPAMVGKGVSGLYADAAVSAADRDAAETVMRAAGLTVWLADEAGIDDITCVSGSGPAYVFYFIESMIEAAAKAGFGEDKARELVLATFDGAVELARQSPLPVAELRRNVMSKGGTTERAIARFEAEGVKAAIVAGAMDCRDRSIEMGRELSQELEHHHHHH	soluble
MGIMADRLASMVVKATSPDGQIEGELRDRDAVSVAFRGDTYRHYTEYSLGTQLSRLALRMWTGYQRGYDEAVAEATGRPVSRSQETWDANRRRFRQEQAATTVTGMSTDGWIYIQNTGMTSWHVVIRQGTLSKLDEDQFVAELMDAYNTMITEYRFATADLRAKHYGVSFQPRNPPVKELRA	not soluble
MPGPILKKCFNCRVALPEDAINTAQCQKCQKNEAKYGKPGTCQYCKLNAAFHDQKCVWCSHAERKFGNPFPCANCKLSCAFPRRESDKVEGAALLCRLCILQARHTNQTVVAGIPVPPEKPERSGEGSSTEQRDRDHRQHRPTSHHHRDHKDHHRRDDKHHHRDSNHRHAHKRRHQEEPNNNSNNGTSSSGGAPPLVPNNENGNGFPPFGDRDPGESMVKQQKMEDEIRRLKTLLAEKDQLIFDKDKQISNLKADQYNLDKKHRERVQQLIKEKEDSIRAIEQMRNSKSSKRN	not soluble
ARPCIPKSFGYSSVVCVCNATYCDSFDPPTFPALGTFSRYESTRSGRRMELSMGPIQANHTGTGLLLTLQPEQKFQKVKGFGGAMTDAAALNILALSPPAQNLLLKSYFSEEGIGYNIIRVPMASCDFSIRTYTYADTPDDFQLHNFSLPEEDTKLKIPLIHRALQLAQRPVSLLASPWTSPTWLKTNGAVNGKGSLKGQPGDIYHQTWARYFVKFLDAYAEHKLQFWAVTAENEPSAGLLSGYPFQCLGFTPEHQRDFIARDLGPTLANSTHHNVRLLMLDDQRLLLPHWAKVVLTDPEAAKYVHGIAVHWYLDFLAPAKATLGETHRLFPNTMLFASEACVGSKFWEQSVRLGSWDRGMQYSHSIITNLLYHVVGWTDWNLALNPEGGPNWVRNFVDSPIIVDITKDTFYKQPMFYHLGHFSKFIPEGSQRVGLVASQKNDLDAVALMHPDGSAVVVVLNRSSKDVPLTIKDPAVGFLETISPGYSIHTYLWHRQ	soluble
MGSDKIHHHHHHMTRVLKVDPLFPDEKVLKEAAELLRNGEVIIFPTETVYGIGADAYNEEACKKIFKLKERPADNPLIVHIHSFKQLEEIAEGYEPHLDFLKKFWPGPLTVIFRKKSEKIPPVVTADLPTVAVRMPAHPVALKLIELFGHPIAAPSANISGRPSATNVKHVIEDFMGKVKLIIDAGDTPFGLESTIVDLTKEKPVLLRPGPVEVERLKELFPELVVPDFVRKGNFKGRPLAPGMKYRHYAPLKPLILVEDLTKMEEVLKKYPDHVVICVEERKELYDDRIVVGSLKNPYSIAQNIFSALREAEKMGKEYIIVEGFEERGILFAVMNRLRKAATEIVR	not soluble
GSQRVLVEPDAGAGVAVMKFKNPPVNSLSLEFLTELVISLEKLENDKSFRGVILTSDRPGVFSAGLDLTEMCGRSPAHYAGYWKAVQELWLRLYQSNLVLVSAINGACPAGGCLVALTCDYRILADNPRYCIGLNETQLGIIAPFWLKDTLENTIGHRAAERALQLGLLFPPAEALQVGIVDQVVPEEQVQSTALSAIAQWMAIPDHARQLTKAMMRKATASRLVTQRDADVQNFVSFISKDSIQKSLQMYLERLKEEKG	soluble
MKFPGQRKSKHYFPVHARDPLVSQAQEAKKMSRTHIIGIDQTLVDIEAKVDDAFIEKYGLSKGHSLVIDNDKAEMLYNELKDNNMISNEFAGGTIGNTLHNYSVLADDKSTLLGVMSEDIHIGSYSYRYLCNTSSRMDLNYLQPVPGAIGRCFALISEDGERTFAISEGDMNQLRAESIPEKIFKNASALVLTAYLVRCKEGDPMPEATMKAIEYAKKYDVPVVLTMGTKFVVQDDPQYWRDFLNDHVTVVAMNEEEGEALTGATDPLEAANKTLEWVDLVLCTAGPVGLYMAGYTEDSAKRETSLPLLPGTIAEFNQFEFSRPAVKDSCENPIKVFSHISPYMGGPEKIKNTNGAGDGALSALLHDMAANHYHRNNVPNSSKHQHSFLTYSSFSQVCKYSNRVSFEVLAQHSPRLSRGLPEREDSLEEAYWER	not soluble
MTESEVRKLLRQMKELDSQTAFRDFYNMTYDRLFRIAYYYVKQEEWSQEIVLDIFLKLWKQRDTLLDVKNIEDYCFILVKNASLNYLEKESKYTTIHSDSLPEPQEQSYSPEESLISEELFAIYVKALDRLPERCREIFIRIREEKQSYAQVAEELDISIKTVDAQLQKAVSRLKEMISSSG	not soluble
MGSDKIHHHHHHMSMVEEKFKKLGVENAPGQELLQKGVKLDLKGEKILGEKIDFSHGDVDAHKPLPNSLELFIEGFNKGGIQAYTEYKGNKEIREYIAGKLSEYIKMNIPADNLIITPGTQGALFLATGSLITRGTKVSIVEPDYFANRKLVEFFEGEIVPIELDYFNVNEKKAGLNLKQLEEAFKSGVELFLFSNPNNPTGVIYSDEEITEIARLVNKYNVTVIADELYSRQIFDNREFYHLITKNINQDKLITIIGPSKTESLSGFRLGIAYGSPTIIKRMEKLQAITTLRTAGYNQAVLKSWFSEPDGFMKDRIEKHQAIRDNLIEKFKTIDGIKIRKTEAGSYIFPTLPELEVNLGDFVKILRIYANVIVTPGTEFGKSFINSIRLNFSQDEKKAAEGVDRILEMIRRYKK	not soluble
MSLKMTFCRAVCLAAAFLLMGCDEAPETTTASPAAQVLEGKTMGTLWRVSVVGIDAKRAAELQTKIQTQLDADDWLLSTYKNDSALMRFNHSRSLAPWPVSEAMADIVTSALRIGAKTDGAMDITVGPLVNLWGFGPDRQPLHIPTPAQIDAAKAKTGLQHLQVIDRAGHQFLQKDLPDLYVDLSTVGEGYAADHLARLMEQEGIARYLVSVGGALSSRGMNAQGQPWRVAIQKPTDRENAVQAIVDINGHGISTSGSYRNYYELDGKRVSHVIDPQTGRPIEHNLVSVTVIAPTALEADGWDTGLMVLGTQKAQEVVRREGLAVFMIMKEGEGFKTWMSPQFKTFLVSDKNEGGSHHHHHH	soluble
MEAKTMKDMQKEVDAYIGQFKEGYFSPLAMMARLTEEMGELAREVNHYYGEKPKKTTEKERSIEEELGDVLFVMICMANSLNIDLETAHNIVMNKFNTRDKDRWTRIDEGEKE	not soluble
DDGEPYALCVVATDITDQKQRERELARLTDEYAAVFENTNDAIALVDIEEPADDPTFRYVRTNEAYERQTGFDTESLTGQTPVEAAGPDIGRRIADHYKQCVSAGEPITFEERDLHPTGVWETQVTPIAADG	not soluble
MMNDSFCRIIAGEIQARPEQVDAAVRLLDEGNTVPFIARYRKEITGGLDDTQLRNLETRLSYLRELEERRQAILKSISEQGKLTDDLAKAINATLSKTELEDLYLPYKPKRRTRGQIAIEAGLEPLADLLWSDPSHTPEVAAAQYVYADKGVADTKAALDGARYILMERFAEDAALLAKVRDYLWKNAHLVSTVVSGKEEEGAKFRDYFDHHEPLSTVPSHRALAMFRGRNEGVLQLSLNADPQFDEPPKESYCEQIIMDHLGLRLNNAPADSWRKGVVSWTWRIKVLMHLETELMGTVRERAEDEAINVFARNLHDLLMAAPAGLRATMGLDPGLRTGVKVAVVDATGKLVATDTIYPHTGQAAKAAMTVAALCEKHNVELVAIGNGTASRETERFYLDVQKQFPKVTAQKVIVSEAGASVYSASELAAQEFPDLDVSLRGAVSIARRLQDPLAELVKIDPKSIGVGQYQHDVSQTQLARKLDAVVEDCVNAVGVDLNTASVPLLTRVAGLTRMMAQNIVAWRDENGQFQNRQQLLKVSRLGPKAFEQCAGFLRINHGDNPLDASTVHPEAYPVVERILAATQQALKDLMGNSSELRNLKASDFTDEKFGVPTVTDIIKELEKPGRDPRPEFKTAQFADGVETMNDLQPGMILEGAVTNVTNFGAFVDIGVHQDGLVHISSLSNKFVEDPHTVVKAGDIVKVKVLEVDLQRKRIALTMRLDEQPGETNARRGGGNERPQNNRPAAKPRGREAQPAGNSAMMDALAAAMGKKR	soluble
MQTEVKETPRYAIVASVQLPEVSDAEFEASLTELSELAKTLGFQVVQTFVQKRSSFDRTAYMGVGKLDEISMYVKRGIRADELEDEPQELDASSVAIDALLVDHEISPSQARNLELAVGCEVMDRTMVILEIFHRNARSRAARAQVEIARLGYMAPRLREAAKLAGPQGRQRSGMGGRGAGESHTELDRRKVRDRIAELQREIVAMELERKTQRARRLERQGLGLGGVSLVGYTNAGKSTLMRALTGSEVLVANKLFATLDTTVRVLHPESVPRVLVSDTVGFIKNLPHGLVASFKSTLEEALDASLLLHAIDASDPGFQRQLEVTDEVLREIGADDVPRIRVFNKIDHVGDEAEQAAWTAELRQRYPGCVVMSALRPEDVASLRAAIVAFFQQDLVEDELLLPWSAQQLRGEIYSHCQVLEERAEEEGCWFRVRGEPEKLRSLREQLNPGSQGREKEYWEALEHHHHHH	not soluble
MSLNRFRKWLYKPKRSDPQLLARFYYADEELNQVAAELDSLDGRKDPQRCTLLVSQFRSCQDNVLNIINQIMDECIPQDRAPRDFCVKFPEEIRHDNLAGQLWFGAECLAAGSIIMNRELESMAMRPLAKELTRSLEDVRGALRDQALRDLNTYTEKMREALRHFDVLFAEFELSYVSAMVPVKSPREYYVQQEVIVLFCETVERALDFGYLTQDMIDDYEPALMFSIPRLAIVCGLVVYADGPLNLDRKVEDMSELFRPFHTLLRKIRDLLQTLTEEELHTLERNLCISQDVEFPIRADEGHHHHHH	not soluble
MEARAIVIIPDTLKVGFIIGGRRGQGLMSIKTPQNTWSQPVFVKLTGGSIGLQAGVQSSDVVLVFRNDRNLDNIVNGKFTLGADASVAAGPVGRNALAATDSELKAEIYSWSTARGLFAGIALDGAALQIDDSANLDVYGKGTTPRMIFEGRTAEPPSSDVIAFRDRLEEVTYTARNNLEHHHHHH	not soluble
